# Publication PMC8277577 (Nature, 2021)
# Target: SARS-CoV-2 receptor binding domain (RBD) (SARS-CoV-2, GenBank MN985325.1 …, UniProt P0DTC2)
# Test: BLI
# Conditions: both partners purified
row,Binder,Kd
1,"C929 (antibody, V domains shown, source: recombinant, purified) VH: EVQLVESGGGLIQPGGSLRLSCAASGFTVSSNYMTWVRQAPGKGLEWVSVIYSGGTTYYADSVKGRFTISRDNSKNTLYLQMNSLRAEDTAVYYCARDLVVWGMDVWGQGTTVTVSS VL: DIQLTQSPSFLSASVGDRVTITCRASQGISSYLAWYQQKPGKAPKLLIYAASTLQSGVPSRFSGSGSGTEFTLTISSLQPEDFATYYCQLLNSYPYTFGQGTKLEIK",0.791 nM
2,"C930 (antibody, V domains shown, source: recombinant, purified) VH: EVQLVESGGGLFQPGGSLRLACAASGITVSSNYMSWVRQPPGKGLEWVSVIYAGGSTFYADSVKGRLTISRDNSKNTLYLQINSLRAEDTAVYYCARDLVVWGMDVWGQGTTVTVSS VL: DIQLTQSPSFLSASVGDRVTITCRASQGISSYLAWYQQKPGKAPKLLIYAASTLQSGVPSRFSGSGSGTEFTLTISSLQPEDFATYYCQQLNTYPYTFGQGTKLEIK",0.318 nM
3,"C1003 (antibody, V domains shown, source: recombinant, purified) VH: QVQLVESGGGVVQPGRSLRLSCAASGFAFSSYGMNWVRQAPGKGLEWVTTVSSDGNVNYYIDSVKGRFTISRDNSKNTLYLQMNSLRGDDTAVYYCAKGPRFGWSYRGGSGFDIWGQGTMVTVSS VL: DIQMTQSPSSLSASVGDRVTITCQASQDISNYLNWYQQKPGKAPKLLIYDASNLETGVPSRFSGSGSGTDFTFTITSLQPEDIATYYCQQYDNLPITFGQGTRLEIK",11.5 nM
4,"C934 (antibody, V domains shown, source: recombinant, purified) VH: QVQLVQSGAEVKKPGASVKVSCKASGYTFTDYYIHWVRQAPGQGLEWMGWINPNSGGTNYAQKFQGRVTMTRDTSISTAYMDLSRLRSDDTAVYYCARDVIITMGRGVVFRMDVWGQGTTVTVSS VL: not shown",10.8 nM
5,"C889 (antibody, V domains shown, source: recombinant, purified) VH: EVQLVESGGGLVQPGGSLRLSCAVSGFTVSSNYMTWVRQAPGKGLEWVSLIYSGTSAFYADSVKGRFTISRDNSKNTLYLQMSSLRVNDTAIYYCARDLRKDDGYSYGAFDYWGQGTLVTVSS VL: QSALTQPASVSGSPGQSITISCSGTSSDVGAHNYVSWYQQYPGKAPKLMIFDVTDRPSGVSNRFSGSKSGNTASLTISGLQAEDEADYYCTSYTTNRSWVFGGGTKVTVL",2.46 nM
6,"C010 (antibody, V domains shown, source: recombinant, purified) VH: EVQLVESGGGVVQPGRSLRLSCAASGFTFSSYAMHWVRQAPAKGLEWVAVILYDGSGKYYADSVKGRFTISRDNSKNTLYLQMNSLRAEDTAVYYCARDGIVDTALVTWFDYWGQGTLVTVSS VL: not shown",35.1 nM
7,"C937 (antibody, V domains shown, source: recombinant, purified) VH: EVQLVESGGGLIQPGGSLRLSCAASELTVSSNYMSWVRQAPGKGLEWVSVIYPGGSTFYADSVKGRFTISRDNSKNTLYLQMNSLRAEDTAVYYCARDLGTGLFDYWGQGTLVTVSS VL: DIQLTQSPSFLSASVGDRVTITCRASQGISSYLAWYQQKPGKAPKLLIYAASTLQSGVPSRFSGSGSGTEFTLTISSLQPEDFATYFCQLLNSNPPGTFGPGTKVDIK",4.4 nM
8,"C952 (antibody, V domains shown, source: recombinant, purified) VH: EVQLVQSGAEVKKPGESLTISCKDSGNSFTIYWIGWVRQMPGKGLEWMGMIYPGDSGTRYSPSFEGQVTISADESINTAYLQWRSLKASDTAMYYCVRGIAVDWYFDLWGRGTLVTVSS VL: QSVLTQPPSVSGAPGQRVTISCTGSSSNIGAGFDVHWYQQLPGTAPKLLIYGNNNRPSGVPDRFSGSKSATSASLAITGLQAEDEADYYCQSSDSSLSGLYVFGTGTNVIV",0.587 nM
9,"C840 (antibody, V domains shown, source: recombinant, purified) VH: QVQLVESGGGVVQPGRSLRLSCEASGFTFTAYAMHWLRQAPGKGLEWVAVILNDGSNKLYADSVKGRFTVSRDNSKNMLYLQVNSLRVDDTAVYYCARDGSVDTLMVTWFDYWGQGTLVTVSS VL: DIQMTQSPSSLSASVGDRVTITCRASQSVNNYLNWYQQKPGQAPKLLIYAASSLQSGVPLRFSGSGSGTDFALTITSLHTEDFATYYCQQSYNTPPWTFGPGTKVEIK",1.87 nM
10,"C032 (antibody, V domains shown, source: recombinant, purified) VH: EVQLVQSGAEVKKPGESLKISCKGSGYSFTSYWIGWVRQMPGKGLEWMGIIYPGDSDTRYSPSFQGQVTISADKSISTAYLQWSSLKASDTAMYYCARGVAVDWYFDLWGRGTLVTVSS VL: QSVLTQPPSVSGAPGQRVTISCTGSSSNIGAGYDVHWYQQLPGTAPKLLIYGNSNRPSGVPDRFSGSKSGTSASLAITGLQAEDEADYYCQSYDSSLSALYVFGTGTKVTVL",32.1 nM
11,"C517 (antibody, V domains shown, source: recombinant, purified) VH: EVQLVESGGGLVQPGGSLRLSCAASEFIVSRNYMSWVRQAPGKGLEWVSLIYSGGSTYYADSVKGRFTISRDNSKNTLYLQMNSLRAEDTAMYYCARDIAGRLDYWGQGTLVTVSS VL: DIQMTQSPSSLSASVGDRVTITCQASQDISKYLNWYQQKPGKAPKLLIYDASNLETGVPSRFSGSGSGTDFTFTISSLQPEDFATYYCQHYDSLSRLTFGGGTKVEIK",28.8 nM
12,"C1002 (antibody, V domains shown, source: recombinant, purified) VH: EVQLVESGGGLVQPGGSLRLSCAASEFIVSSNYMTWVRQAPGKGLEWVSIMYPGGSTFYADSVKGRFTISRDNSKNTLYLQINRLRAEDTAVYYCARDIAGRLDYWGQGTLVTVSS VL: DIQMTQSPSSLSASVGDRVTITCQASQDINNYLNWYQQKPGKAPKLLIYDASNLETGVPSRFSGSGSGTDFSFTISSLQPEDIATYYCQQYDNLSRLTFGGGTKVEIK",0.00513 nM
13,"C888 (antibody, V domains shown, source: recombinant, purified) VH: EVQLVESGGGLVQPGGSLRLSCAASGFTVSSNYMSWVRQAPGKGLEWVSVIYSGGSAYYADSVKGRFTISRDNSKNTLYLQMNSLRAEDTAVYYCARDLRDQDGYSYGAFDYWGQGTLVTVSS VL: QSALTQPASVSGSPGQSITISCTGTSSDVGGYNYVSWYQQHPGKAPKLMIYDVSNRPSGVSNRFSGSKSGNTASLTISGLQAEDEADYYCSSYTSSSSWVFGGGTKLTVL",7240 nM
14,"C153 (antibody, V domains shown, source: recombinant, purified) VH: EVQLVESGGGLIQPGGSLRLSCAASGFTVSSNYMSWVRQAPGKGLEWVSVIYSGYSTYYVDSVKGRFTISRDNSKNTLYLQMNSLRAEDTAVYYCARVGGAHSGYDGSFDYWGQGTLVTVSS VL: QSALTQPASVSGSPGQSITISCTGTSSDVGSYNLVSWYQQHPGKAPKLMIYEGSKRPSGVSNRFSGSKSGNTASLTISGLQAEDEADYYCCSYAGSSTWVFGGGTKLTVL",1380 nM
15,"C881 (antibody, V domains shown, source: recombinant, purified) VH: EVQLVESGGGLIQPGGSLRLSCAVSGVAVSTNYMSWVRQAPGQGLEWVSTIYSGDTTYYSDSVKGRFTISRDNSKNTFYLQMNSLRVPDTAVYYCARLGGVFNGFNGSFDYWGQGTLVTVS VL: QSALTQPASVSGSPGQSITISCIGTSSDFENYNLVSWYQQHPGKAPKVMIYEDTKRPSGVSNRFSGSKSANTASLTISGLQAEDEAEYYCCSYAGASTWVFGGGTRVTVV",1.95 nM
16,"C871 (antibody, V domains shown, source: recombinant, purified) VH: EVQLVESGGGLIQTGGSLKLSCAASGFIVTNNYMSWVRQAPGKGLEWVSVIYSGGTTYYADSVKGRFTISRDISKNTLYLQMNSLKAEDTAVYYCAREGDVEGISDSWSGYSRDRYYFDHWGQGTLVTVSS VL: QSALTQPASVSGSPGQSITISCTGTSSDVGGYNYVSWYQQHPGKAPKLMIYDVSNRPPTISNRFSGSKSGNTASLIISGLQPEDEADYYCSSFTSNNTRVFGTGTKVTVL",2.76 nM
